Values belong to the molecule of their own block, whether it stands above or below them.
Key:
[1] = target: T1, FcγRIIA^131H (human, UniProt P12318 34-217, biotin-labeled); test: ELISA, coated antibody, biotin-FcγR
T1 construct: extracellular domain; Bought protein; also called RIIAH
T1 sequence (looked up): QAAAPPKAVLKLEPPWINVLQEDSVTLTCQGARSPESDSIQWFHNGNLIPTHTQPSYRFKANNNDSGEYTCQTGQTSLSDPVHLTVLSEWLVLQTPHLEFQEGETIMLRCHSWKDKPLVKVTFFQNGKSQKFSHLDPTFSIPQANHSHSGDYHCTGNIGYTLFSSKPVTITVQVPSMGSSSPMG
Experimental: (§1) One hundred μl (2 μg/mL) of antibody or mutant thereof were added to the enzyme-linked plate to be coated overnight, then the supernatant was discarded. The plate was blocked with PBS containing 1% BSA for 2 hours, and washed with PBST (PBS containing 0.05% Tween 20). Biotin-labeled FcγR extracellular domain protein (Beijing Sino Biological Co., Ltd) of appropriate concentration was added and incubated at room temperature for 1 hour, then the supernatant was discarded and the plate was washed with PBST. The Biotin-labeled protein was detected by incubating with Streptavidin-HRP (BD BioSciences) at room temperature for 1 hour. The supernatant was removed, and the color-developing solution was added for color development for 20-40 minutes to determine the absorbance of 650 nm (A650).
(§2) Anti-human OX40 antibodies containing these new Fc mutation combinations are expressed and the binding property of the mutant antibody to FcγR are analyzed by Enzyme-linked immunosorbent assay (ELISA).

[2] = target: T2, FcγRIIB (human, UniProt P31994 43-217, biotin-labeled); test: ELISA, coated antibody, biotin-FcγR
T2 construct: extracellular domain; Bought protein; also called CD32b
T2 sequence (looked up): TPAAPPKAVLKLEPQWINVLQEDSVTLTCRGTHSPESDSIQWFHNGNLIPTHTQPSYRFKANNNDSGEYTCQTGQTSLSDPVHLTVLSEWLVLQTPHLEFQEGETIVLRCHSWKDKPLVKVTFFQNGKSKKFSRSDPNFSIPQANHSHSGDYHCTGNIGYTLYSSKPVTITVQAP
Experimental: as §1, §2

[3] = target: T3, FcγRI (human, UniProt P12314 16-292, biotin-labeled); test: ELISA, coated antibody, biotin-FcγR
T3 construct: extracellular domain; Bought protein; also called CD64
T3 sequence (P12314 16-292): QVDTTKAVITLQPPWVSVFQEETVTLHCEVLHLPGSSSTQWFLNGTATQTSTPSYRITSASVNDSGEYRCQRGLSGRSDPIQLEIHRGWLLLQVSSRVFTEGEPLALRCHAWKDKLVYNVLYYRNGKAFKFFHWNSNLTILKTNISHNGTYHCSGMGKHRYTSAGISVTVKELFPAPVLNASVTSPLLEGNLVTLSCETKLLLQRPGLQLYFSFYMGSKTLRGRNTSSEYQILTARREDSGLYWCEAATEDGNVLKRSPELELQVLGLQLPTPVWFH
Experimental: as §1, §2

[4] = target: T4, FcγRIIIA^158F (human, UniProt P08637 17-208, biotin-labeled); test: ELISA, coated antibody, biotin-FcγR
T4 construct: extracellular domain; Bought protein; also called RIIIAF
T4 sequence (P08637 17-208): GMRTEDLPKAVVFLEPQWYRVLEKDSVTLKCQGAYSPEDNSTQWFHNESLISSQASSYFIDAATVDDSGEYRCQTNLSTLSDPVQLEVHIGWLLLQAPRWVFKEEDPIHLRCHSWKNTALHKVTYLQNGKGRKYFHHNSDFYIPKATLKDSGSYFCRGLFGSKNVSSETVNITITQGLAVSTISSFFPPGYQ
Experimental: as §1, §2

[5] = target: T5, FcγRIIIA^158V (human, UniProt P08637 17-208, biotin-labeled); test: ELISA, coated antibody, biotin-FcγR
T5 construct: extracellular domain; Bought protein; also called RIIIAV; CD16a 158V
T5 sequence (P08637 17-208 F176V): as the sequence (P08637 17-208) above, with F160V counted along it
Experimental: as §1, §2

[6] = target: T6, FcγRIIA^131R (human, UniProt P12318 34-217, biotin-labeled); test: ELISA, coated antibody, biotin-FcγR
T6 construct: extracellular domain; Bought protein; also called RIIAR
T6 sequence (looked up): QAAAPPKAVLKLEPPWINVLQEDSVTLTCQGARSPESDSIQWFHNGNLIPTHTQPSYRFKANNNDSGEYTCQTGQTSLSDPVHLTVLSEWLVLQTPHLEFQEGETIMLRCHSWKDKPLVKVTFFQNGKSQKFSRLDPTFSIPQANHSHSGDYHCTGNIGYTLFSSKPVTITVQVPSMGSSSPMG
Experimental: as §1, §2

[7] = target: T7, Biotin-FcγRIIB (human FcγRIIB, Sino Biological) (human, UniProt P31994 43-217, limits assumed, biotin-labeled); test: NGS after FACS sort of 3T3-displayed LibraryMix for biotin-FcγRIIB binding
T7 construct: Used at 1 µg/ml with Streptavidin-APC for flow cytometry and sorting; also called CD32b
T7 sequence (looked up): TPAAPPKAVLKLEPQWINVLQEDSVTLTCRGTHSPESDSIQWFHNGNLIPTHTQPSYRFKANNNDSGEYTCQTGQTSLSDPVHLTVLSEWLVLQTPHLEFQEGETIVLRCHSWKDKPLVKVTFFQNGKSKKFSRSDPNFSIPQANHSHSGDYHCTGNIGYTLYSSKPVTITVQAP

[8] = target: T8, Biotin-FcγRIIB (human, UniProt P31994 43-217, limits assumed, biotin label); test: NGS of 3T3 display library C2 flow-sorted for FcγRIIB binding
T8 construct: Soluble labelled protein used to stain and sort the display cells; also called human FcγRIIB; CD32b
T8 sequence (looked up): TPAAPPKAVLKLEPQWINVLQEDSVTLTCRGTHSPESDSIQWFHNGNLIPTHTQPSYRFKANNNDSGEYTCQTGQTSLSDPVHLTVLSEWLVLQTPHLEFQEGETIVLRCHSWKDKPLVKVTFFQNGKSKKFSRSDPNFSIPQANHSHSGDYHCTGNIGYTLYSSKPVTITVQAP

enrichment factor, percentage after 1st sorting/percentage before sorting [8]: 229 ratio
enrichment factor, percentage after 2nd sorting/percentage after 1st sorting [8]: 6.6 ratio
enrichment factor, percentage after 3rd sorting/percentage after 2nd sorting [8]: 0.78 ratio
enrichment factor, percentage after 3rd sorting/percentage before sorting [8]: 1180 ratio
increased factor, mutant enrichment factor/wild-type enrichment factor [8]: 844 ratio
percentage after 1st sorting [8]: 2.59%
percentage after 2nd sorting [8]: 17.1%
percentage after 3rd sorting [8]: 13.3%
percentage before sorting [8]: 0.01%
B2: human IgG2 anti-mouse CD40 surface displayed antibody, V266L/S267M/H268E/P271Q (antibody, name in EU numbering)
light chain (with the P2A rest): DTVLTQSPALAVSPGERVTISCRASDSVSTLMHWYQQKPGQQPKLLIYLASHLESGVPARFSGSGSGTDFTLTIDPVEADDTATYYCQQSWNDPWTFGGGTKLELKRTVAAPSVFIFPPSDEQLKSGTASVVCLLNNFYPREAKVQWKVDNALQSGNSQESVTEQDSKDSTYSLSSTLTLSKADYEKHKVYACEVTHQGLSSPVTKSFNRGECGSGATNFSLLKQAGDVEENPG
heavy chain: EVQLVESDGGLVQPGRSLKLPCAASGFTFSDYYMAWVRQAPTKGLEWVASISYDGSSTYYRDSVKGRFTISRDNAKSTLYLQMDSLRSEDTATYYCGRHSSYFDYWGQGVMVTVSSASTKGPSVFPLAPCSRSTSESTAALGCLVKDYFPEPVTVSWNSGALTSGVHTFPAVLQSSGLYSLSSVVTVPSSNFGTQTYTCNVDHKPSNTKVDKTVERKCCVECPPCPAPPVAGPSVFLFPPKPKDTLMISRTPEVTCVVVDLMEEDQEVQFNWYVDGVEVHNAKTKPREEQFNSTFRVVSVLTVVHQDWLNGKEYKCKVSNKGLPAPIEKTISKTKGQPREPQVYTLPPSREEMTKNQVSLTCLVKGFYPSDIAVEWESNGQPENNYKTTPPMLDSDGSFFLYSKLTVDKSRWQQGNVFSCSVMHEALHNHYTQKSLSLSPGKLEPPPSTVSNMATVAVLVVLGAAIVTGAVVAFVMKMRRRNTGGKGGDYALAPGSQTSDLSLPDCKVMVHDPHSLA
notes: As m1 with the Fc mutations

Enrichment factor (percentage after sorting/percentage before sorting) [7]: 46.2
Increased factor (enrichment factor/wild-type enrichment factor) [7]: 61.8
B5: human IgG2 anti-mouse CD40 surface displayed antibody, P271G/P329S (antibody, name in EU numbering)
light chain (with the P2A rest): DTVLTQSPALAVSPGERVTISCRASDSVSTLMHWYQQKPGQQPKLLIYLASHLESGVPARFSGSGSGTDFTLTIDPVEADDTATYYCQQSWNDPWTFGGGTKLELKRTVAAPSVFIFPPSDEQLKSGTASVVCLLNNFYPREAKVQWKVDNALQSGNSQESVTEQDSKDSTYSLSSTLTLSKADYEKHKVYACEVTHQGLSSPVTKSFNRGECGSGATNFSLLKQAGDVEENPG
heavy chain: EVQLVESDGGLVQPGRSLKLPCAASGFTFSDYYMAWVRQAPTKGLEWVASISYDGSSTYYRDSVKGRFTISRDNAKSTLYLQMDSLRSEDTATYYCGRHSSYFDYWGQGVMVTVSSASTKGPSVFPLAPCSRSTSESTAALGCLVKDYFPEPVTVSWNSGALTSGVHTFPAVLQSSGLYSLSSVVTVPSSNFGTQTYTCNVDHKPSNTKVDKTVERKCCVECPPCPAPPVAGPSVFLFPPKPKDTLMISRTPEVTCVVVDVSHEDGEVQFNWYVDGVEVHNAKTKPREEQFNSTFRVVSVLTVVHQDWLNGKEYKCKVSNKGLSAPIEKTISKTKGQPREPQVYTLPPSREEMTKNQVSLTCLVKGFYPSDIAVEWESNGQPENNYKTTPPMLDSDGSFFLYSKLTVDKSRWQQGNVFSCSVMHEALHNHYTQKSLSLSPGKLEPPPSTVSNMATVAVLVVLGAAIVTGAVVAFVMKMRRRNTGGKGGDYALAPGSQTSDLSLPDCKVMVHDPHSLA
notes: m1 with these Fc mutations (Eu numbering); copies: 2 + 2

Further lines, the molecule ahead of its results:

Molecule: IgG1 (antibody)
Absorbance value [1]: 0.57 A650
Absorbance value [2]: 0.76 A650
Absorbance value [3]: 2.66 A650
Absorbance value [4]: 0.19 A650
Absorbance value [5]: 0.96 A650
Absorbance value [6]: 0.26 A650

B1: human IgG2 anti-mouse CD40 surface displayed antibody, P271G (antibody, name in EU numbering)
light chain (with the P2A rest): DTVLTQSPALAVSPGERVTISCRASDSVSTLMHWYQQKPGQQPKLLIYLASHLESGVPARFSGSGSGTDFTLTIDPVEADDTATYYCQQSWNDPWTFGGGTKLELKRTVAAPSVFIFPPSDEQLKSGTASVVCLLNNFYPREAKVQWKVDNALQSGNSQESVTEQDSKDSTYSLSSTLTLSKADYEKHKVYACEVTHQGLSSPVTKSFNRGECGSGATNFSLLKQAGDVEENPG
heavy chain: EVQLVESDGGLVQPGRSLKLPCAASGFTFSDYYMAWVRQAPTKGLEWVASISYDGSSTYYRDSVKGRFTISRDNAKSTLYLQMDSLRSEDTATYYCGRHSSYFDYWGQGVMVTVSSASTKGPSVFPLAPCSRSTSESTAALGCLVKDYFPEPVTVSWNSGALTSGVHTFPAVLQSSGLYSLSSVVTVPSSNFGTQTYTCNVDHKPSNTKVDKTVERKCCVECPPCPAPPVAGPSVFLFPPKPKDTLMISRTPEVTCVVVDVSHEDGEVQFNWYVDGVEVHNAKTKPREEQFNSTFRVVSVLTVVHQDWLNGKEYKCKVSNKGLPAPIEKTISKTKGQPREPQVYTLPPSREEMTKNQVSLTCLVKGFYPSDIAVEWESNGQPENNYKTTPPMLDSDGSFFLYSKLTVDKSRWQQGNVFSCSVMHEALHNHYTQKSLSLSPGKLEPPPSTVSNMATVAVLVVLGAAIVTGAVVAFVMKMRRRNTGGKGGDYALAPGSQTSDLSLPDCKVMVHDPHSLA
notes: m1 with this Fc mutation (Eu numbering); copies: 2 + 2
Enrichment factor (percentage after sorting/percentage before sorting) [7]: 68.9
Increased factor (enrichment factor/wild-type enrichment factor) [7]: 92.1

B3: human IgG2 anti-mouse CD40 surface displayed antibody, P271A/S298R (antibody, name in EU numbering)
light chain (with the P2A rest): DTVLTQSPALAVSPGERVTISCRASDSVSTLMHWYQQKPGQQPKLLIYLASHLESGVPARFSGSGSGTDFTLTIDPVEADDTATYYCQQSWNDPWTFGGGTKLELKRTVAAPSVFIFPPSDEQLKSGTASVVCLLNNFYPREAKVQWKVDNALQSGNSQESVTEQDSKDSTYSLSSTLTLSKADYEKHKVYACEVTHQGLSSPVTKSFNRGECGSGATNFSLLKQAGDVEENPG
heavy chain: EVQLVESDGGLVQPGRSLKLPCAASGFTFSDYYMAWVRQAPTKGLEWVASISYDGSSTYYRDSVKGRFTISRDNAKSTLYLQMDSLRSEDTATYYCGRHSSYFDYWGQGVMVTVSSASTKGPSVFPLAPCSRSTSESTAALGCLVKDYFPEPVTVSWNSGALTSGVHTFPAVLQSSGLYSLSSVVTVPSSNFGTQTYTCNVDHKPSNTKVDKTVERKCCVECPPCPAPPVAGPSVFLFPPKPKDTLMISRTPEVTCVVVDVSHEDAEVQFNWYVDGVEVHNAKTKPREEQFNRTFRVVSVLTVVHQDWLNGKEYKCKVSNKGLPAPIEKTISKTKGQPREPQVYTLPPSREEMTKNQVSLTCLVKGFYPSDIAVEWESNGQPENNYKTTPPMLDSDGSFFLYSKLTVDKSRWQQGNVFSCSVMHEALHNHYTQKSLSLSPGKLEPPPSTVSNMATVAVLVVLGAAIVTGAVVAFVMKMRRRNTGGKGGDYALAPGSQTSDLSLPDCKVMVHDPHSLA
notes: as for B5
Enrichment factor (percentage after sorting/percentage before sorting) [7]: 2.45
Increased factor (enrichment factor/wild-type enrichment factor) [7]: 3.27

B4: human IgG2 anti-mouse CD40 surface displayed antibody, L328M (antibody, name in EU numbering)
light chain (with the P2A rest): DTVLTQSPALAVSPGERVTISCRASDSVSTLMHWYQQKPGQQPKLLIYLASHLESGVPARFSGSGSGTDFTLTIDPVEADDTATYYCQQSWNDPWTFGGGTKLELKRTVAAPSVFIFPPSDEQLKSGTASVVCLLNNFYPREAKVQWKVDNALQSGNSQESVTEQDSKDSTYSLSSTLTLSKADYEKHKVYACEVTHQGLSSPVTKSFNRGECGSGATNFSLLKQAGDVEENPG
heavy chain: EVQLVESDGGLVQPGRSLKLPCAASGFTFSDYYMAWVRQAPTKGLEWVASISYDGSSTYYRDSVKGRFTISRDNAKSTLYLQMDSLRSEDTATYYCGRHSSYFDYWGQGVMVTVSSASTKGPSVFPLAPCSRSTSESTAALGCLVKDYFPEPVTVSWNSGALTSGVHTFPAVLQSSGLYSLSSVVTVPSSNFGTQTYTCNVDHKPSNTKVDKTVERKCCVECPPCPAPPVAGPSVFLFPPKPKDTLMISRTPEVTCVVVDVSHEDPEVQFNWYVDGVEVHNAKTKPREEQFNSTFRVVSVLTVVHQDWLNGKEYKCKVSNKGMPAPIEKTISKTKGQPREPQVYTLPPSREEMTKNQVSLTCLVKGFYPSDIAVEWESNGQPENNYKTTPPMLDSDGSFFLYSKLTVDKSRWQQGNVFSCSVMHEALHNHYTQKSLSLSPGKLEPPPSTVSNMATVAVLVVLGAAIVTGAVVAFVMKMRRRNTGGKGGDYALAPGSQTSDLSLPDCKVMVHDPHSLA
notes: as for B1
Enrichment factor (percentage after sorting/percentage before sorting) [7]: 24.9
Increased factor (enrichment factor/wild-type enrichment factor) [7]: 33.3
